From paper PMC10680678
Where two headings read alike, the source gives them in different places.

Assays:
[1] = molecular target: Human CD44 extracellular domain (human) (UniProt P16070); test: ITC
[2] = molecular target: Mouse CD44 extracellular domain (mouse) (UniProt P15379); test: ITC
[3] = molecular target: Biotinylated avi-tagged human TβRI (human) (UniProt P36897); test: SPR
[4] = molecular target: Biotinylated avi-tagged human TβRI (human) (UniProt P36897); test: SPR; remark: listed apart in the source
[5] = molecular target: Biotinylated avi-tagged human TβRII (human) (UniProt P37173); test: SPR
Chain of UniProt P37173 (P37173 23-166): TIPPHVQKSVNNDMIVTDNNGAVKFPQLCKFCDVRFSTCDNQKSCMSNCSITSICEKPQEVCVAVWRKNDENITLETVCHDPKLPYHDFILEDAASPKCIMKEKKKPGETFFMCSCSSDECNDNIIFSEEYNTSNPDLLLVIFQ

Chain of UniProt P36897 (P36897 34-126): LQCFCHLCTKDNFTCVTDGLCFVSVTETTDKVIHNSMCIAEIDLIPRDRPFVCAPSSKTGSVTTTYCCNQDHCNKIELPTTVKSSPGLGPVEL
Chain of UniProt P15379 (P15379 23-685): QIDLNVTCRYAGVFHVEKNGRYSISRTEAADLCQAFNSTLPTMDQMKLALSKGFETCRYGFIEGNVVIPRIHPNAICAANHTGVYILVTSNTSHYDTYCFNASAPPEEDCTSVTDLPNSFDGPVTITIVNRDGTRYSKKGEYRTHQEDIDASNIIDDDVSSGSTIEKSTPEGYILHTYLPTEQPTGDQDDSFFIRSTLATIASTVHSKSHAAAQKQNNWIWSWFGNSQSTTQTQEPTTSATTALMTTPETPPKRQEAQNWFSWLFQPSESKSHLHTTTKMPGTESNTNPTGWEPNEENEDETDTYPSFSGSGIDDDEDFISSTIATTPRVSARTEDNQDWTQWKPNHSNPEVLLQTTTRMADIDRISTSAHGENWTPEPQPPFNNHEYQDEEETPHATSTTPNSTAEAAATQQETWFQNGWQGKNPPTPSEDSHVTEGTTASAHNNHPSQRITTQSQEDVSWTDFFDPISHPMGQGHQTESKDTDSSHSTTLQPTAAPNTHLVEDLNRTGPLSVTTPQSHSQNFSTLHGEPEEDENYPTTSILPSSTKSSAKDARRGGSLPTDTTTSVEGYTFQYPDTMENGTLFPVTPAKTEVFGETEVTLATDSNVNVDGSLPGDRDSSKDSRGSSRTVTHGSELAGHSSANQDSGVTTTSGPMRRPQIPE
Chain of UniProt P16070 (P16070 21-649): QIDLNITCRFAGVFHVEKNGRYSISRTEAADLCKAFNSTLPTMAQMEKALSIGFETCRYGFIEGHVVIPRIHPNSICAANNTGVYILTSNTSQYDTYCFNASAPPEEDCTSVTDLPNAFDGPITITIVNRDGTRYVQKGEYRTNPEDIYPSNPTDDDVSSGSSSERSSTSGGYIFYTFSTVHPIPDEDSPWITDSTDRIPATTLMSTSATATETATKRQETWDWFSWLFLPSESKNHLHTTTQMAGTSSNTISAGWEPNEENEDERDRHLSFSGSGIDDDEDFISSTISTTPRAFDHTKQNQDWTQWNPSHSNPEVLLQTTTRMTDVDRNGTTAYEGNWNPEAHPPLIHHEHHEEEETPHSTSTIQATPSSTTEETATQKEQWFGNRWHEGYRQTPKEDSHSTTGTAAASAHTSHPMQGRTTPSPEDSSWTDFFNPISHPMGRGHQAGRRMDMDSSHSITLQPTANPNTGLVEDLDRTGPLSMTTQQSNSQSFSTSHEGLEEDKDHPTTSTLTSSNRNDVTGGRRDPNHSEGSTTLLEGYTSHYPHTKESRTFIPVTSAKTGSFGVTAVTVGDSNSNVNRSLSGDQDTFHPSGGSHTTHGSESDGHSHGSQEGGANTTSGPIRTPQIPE

Substance | Kd [1] | Kd [2] | Kd [3] | Kd [4] | Kd [5]
TGM1 D4-5 fragment (domain or fragment) | 140 nM | 62 nM |  |  | 
TGM1 full-length recombinant protein (natural protein) |  |  | 70 nM |  | 
TGM4 D4-5 recombinant protein (domain or fragment) | 56 nM | 20 nM |  |  | 
TGM4 full-length recombinant protein (natural protein) |  |  | 3.2 nM | 3 to 5 nM | 116000 nM
